Positions count from the first letter of the chain named. “And” between values parts separate entries of the source, which are not always exact repeats. Identical values can stand only once. Like-named read-outs stand apart in the source and are kept apart here.
T1: recombinant WNV E ectodomain (strain New York 1999) (West Nile virus, strain New York 1999, UniProt Q9Q6P4 291-694)
T1 construct: range 291-694
T1 sequence: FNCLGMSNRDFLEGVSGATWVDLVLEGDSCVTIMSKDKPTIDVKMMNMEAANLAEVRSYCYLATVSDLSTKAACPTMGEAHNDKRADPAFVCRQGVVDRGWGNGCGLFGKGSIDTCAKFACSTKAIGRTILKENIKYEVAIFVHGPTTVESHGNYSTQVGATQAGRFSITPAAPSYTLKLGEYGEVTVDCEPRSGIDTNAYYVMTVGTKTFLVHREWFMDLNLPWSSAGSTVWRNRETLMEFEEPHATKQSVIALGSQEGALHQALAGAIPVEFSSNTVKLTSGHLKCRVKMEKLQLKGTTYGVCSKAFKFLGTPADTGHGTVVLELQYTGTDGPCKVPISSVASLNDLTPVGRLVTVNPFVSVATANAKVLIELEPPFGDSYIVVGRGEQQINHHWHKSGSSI

B1: ZV-54 monoclonal antibody (antibody, V domains shown)
VH: QVQLQQSGVGLARPGTSVKLSCKASGYSFTTYGISWVTQRPGQGLEWIGVIYPRSNNTYYNERFRGKATLTADKSSSSAYLELRGLTAEDSAVYFCARENYGSVYWGQGTTLTVSS
VL: DIVMTQSQKFMSTSVGDRVTITCKASQSVGTAVAWYHQKPGQSPKLLIYSASNRYTGVPDRFTGSGSGTDFTLTITYMQSEDLADYFCQQFSNYPFTFGGGTKLEIK
notes: also called ZIKV-54
B2: ZV-67 monoclonal antibody (antibody, V domains shown)
VH: B1 VH with V2A, V9T, T16A, S28T, T31S, P41A, N56G, R63K, L81M
VL: B1 VL with T20S, S28N, H37Q, T76S, Y77N, N93S, F96Y
notes: also called ZIKV-67
B3: ZV-48 monoclonal antibody (antibody, V domains shown)
VH: QVQLQQPGAELLKPGASVKLSCKASGYSFSNYWMHWVKQRPGQGPEWIGMIHPNSGNTKYNEKFKNKATLTVDKSSSMVYMQLSSLTSEDSAVFYCARLGNDMDYWGQGTSVTVSS
VL: DIVMSQSPSSLAVSVGEKITMSCKSSQSLLYSNNEKNYLAWYQQKPGQSPKLLIYWASARDSGVPDRFTGSGSGTDFTLTISSVKAEDLAVFYCQQYYSYPYTFGGGTKLEIK
notes: also called ZIKV-48
B4: ZV-2 monoclonal antibody (antibody, V domains shown)
VH: QVQLQESGAELMKPGASVKLSCKTSGYTFIGYWIEWLKQRPGHGLEWVGEIFPGSGRTKYNEKFKGRATFTADTSSNMAYMQLSSLTTEDSAIYYCARYYYGSYYALDYWGQGTSVTVSS
VL: DIVMTQSPSSLSVSAGEKVTLSCKSSQSLLHSGNQKNYLAWYQQKPGQAPKLLIYGASTRESGVPDRFTGSGSGTDFTLTISSVQAEDLAVYYCQNDHSYPLTFGAGTKLELK
notes: also called ZIKV-2

Assays:
[1] = molecular target: T2, recombinant ZIKV DIII (domain III of the E protein, strain H/PF/2013, residues 299 to 407) (Zika virus, strain H/PF/2013, UniProt A0A024B7W1 591-694)
[2] = molecular target: T2, recombinant ZIKV DIII (domain III of …); experiment: BLI, equilibrium
[3] = molecular target: T2, recombinant ZIKV DIII (domain III of …); experiment: BLI, biotinylated mAb on streptavidin sensor, DIII in solution; KD (equilibrium)
[4] = molecular target: ZIKV strain H/PF/2013 (French Polynesia, 2013), infectious virus (Zika virus, strain H/PF/2013); experiment: cell-based or functional assay
DENV4 E = molecular target: T3, DENV4 E; experiment: direct ELISA, antigen coated at 2 µg/ml, OD 450 nm
T3 construct: also called DV4-E; recombinant DENV-4 E ectodomain

ZIKV = molecular target: T4, ZIKV; experiment: flow cytometry, infected cells fixed and permeabilized, mAb at 10 µg/ml, Alexa Fluor 647 anti-mouse IgG
T4 construct: also called ZIKV H/PF/2013-infected Vero cells

[5] = molecular target: T2, recombinant ZIKV DIII (domain III of …); experiment: BLI; half-life calculated from the dissociation constant, kd kinetic
[6] = molecular target: T5, ZIKV quad-fusion-loop variant of the E ectodomain (ZIKV E-FL) (Zika virus, strain H/PF/2013); experiment: direct ELISA, antigen coated at 2 µg/ml, mAb at 0.5 µg/ml, OD 450 nm
T5 construct: Variant of m8

[7] = molecular target: T6, recombinant soluble ZIKV E protein ectodomain (strain H/PF/2013) (Zika virus, strain H/PF/2013); experiment: as above
T6 construct: also called ZIKV E ectodomain; monomeric form of the ectodomain of E

[8] = molecular target: T1, recombinant WNV E ectodomain (strain …); experiment: ELISA on plate-adsorbed WNV E
[9] = molecular target: T2, recombinant ZIKV DIII (domain III of …); remark: listed apart in the source
[10] = molecular target: ZIKV subviral particles (SVPs, prM-E of strain H/PF/2013) (Zika virus, strain H/PF/2013)
[11] = molecular target: T2, recombinant ZIKV DIII (domain III of …); remark: listed apart in the source

Binder | koff [1] [s⁻¹] | kon [1] [M⁻¹ s⁻¹] | Kd [2] [nM] | Kd [3] [nM] | % Neutralization (undiluted sups), focus reduction on Vero cells [4] [%] | binding result (DENV4 E) | binding result (ZIKV) | t1/2 [5] [min] | binding result [6] | binding result [7] | binding result [8] | Kd [9] | EC50 (read off the curve) [10] [ng/mL] | Kd [11] | koff [11] [s⁻¹] | kon [11] [M⁻¹ s⁻¹]
B1 | 0.000312 | 149000 | < 10 | 7.9 | 100 | no binding (tested: 0.5 µg/ml) | binds | 33 | binds | binds | no binding (tested: 0.5 µg/ml) | – | – | – | – | –
B2 | – | – | < 10 | 8.8 | 100 | no binding (tested: 0.5 µg/ml) | binds | 13.8 | binds | binds | no binding (tested: 0.5 µg/ml) | 6.77 nM and 9.89 nM | ~5 | – | – | –
B3 | – | – | ~35 | 35 | 100 | no binding (tested: 0.5 µg/ml) | binds | 3.2 | binds | binds | no binding (tested: 0.5 µg/ml) | – | – | 26.8 nM and 35.2 nM | 0.0038 | 148000
B4 | – | – | > 250 | 266 | < 30 | no binding (tested: 0.5 µg/ml) | – | 0.3 | binds | – | no binding (tested: 0.5 µg/ml) | – | – | 121 nM and 295 nM | – | –
